Measured values from the nanobody polyreactivity screen of Harvey et al. (2022).

Assay: yeast display, Sf9 membrane polyspecificity reagent, FACS + sequencing; frameworks hold sequencing errors
In short: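 A nanobody's polyreactivity label depends on the gate it was sorted from. Yeast display cells were stained with 10% biotinylated, detergent-solubilized Sf9 membrane reagent for 1 hour at 4 °C, enriched on streptavidin microbeads and sorted by FACS. The low and high (top ~1%) gates were set on anti-HA fluorescence for expression and streptavidin fluorescence for reagent binding.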

Sequence: QVQLVESGGGLVQAGGSLRLSCAASGITLTIYVMGWYRQAPGKEREFVAAISKSGGSTYYADSVKGRFTISRDNAKNTVYLQMNSLKPEDTAVYYCAADVILYDFADYYVIYDYWGQGTQVTVSS
- polyreactivity (PSR sort gate): high polyreactivity

Sequence: QVQLVESGGGLVQAGCSLRLSCAASGITFVYYAMGRYRQAAGKERELVAAITTGGSTNYADSVKGRFTISRDNAKYTVYLQMNSLKPEDTAVYYCNKRPVILYDYWGQGTQVTVSS
- polyreactivity (PSR sort gate): low polyreactivity

Sequence: QVQLVESGVCLVQSGGSLRLICAASGRIITPYTMGWYRQAPGKERELVATITWSGGSTYYADSVKGRFTISRDNSKNTVYLQMNSLKPEDTAVYYCAARQIYVWAEYDYWGQGTQVTVSS
- polyreactivity (PSR sort gate): low polyreactivity

Sequence: QVHLVESGGGLVKAGGSLGLSCSPSGSTLSFNAMGWYRQAPGKERELVAGITYSGGSTYYADSVKGRFTISRDNAKNTFYLLMNSLKPEDTAVYYCNKASGVYYGHLDYWGQGTQVTVSS
- polyreactivity (PSR sort gate): low polyreactivity

Sequence: QVQLVESGGGLVQAGGSLRLSCAASGRIFKSYAMGWYRQAPGKERELVAAIRSGGSTYYADSVKGRFTISRDNAKYTVYLQMNSLKPEDTAVYYCNRVTRTWKVTYHYWGQGTQVTVSS
- polyreactivity (PSR sort gate): high polyreactivity

Sequence: QVQLVESGGGLVQAGGSLRFSCAASGRIFGGNTMGWYRQAPGKERELVATIRSGDSTYYADSVKGRFTISRDNAKNTVYLQMNSLKPEDTAVYYCGYDYWGQGTQVTVSS
- polyreactivity (PSR sort gate): low polyreactivity

Sequence: QDQLVESGVGLVQAGVSLRLSCAASGSIFESYAMGWSSQAPGKESELVAAIDYDDGSTYYADSVKGRFTISRDNAKNTVYLQMNSLKPEDTAVYYCAAKPTTYYGISDYWGQGTQVTVAS
- polyreactivity (PSR sort gate): high polyreactivity

Sequence: QDQLVESGGGLVQAGGSLRLSCAASGYTFSYYAMGWYRQAPGKERELVARISWGGGSTYYADSVKGRFTISRDNAKNTVYLQMNSLKPEDTAVYYCNARDLGRDWYWPEDDYWGQGTQVTVSS
- polyreactivity (PSR sort gate): low polyreactivity

Sequence: QVQLVESGGGLVQAGGSLRLSCAASGRTFIHYAMGWSRQAPGKERELVAAISRRGGSTYYADSVKGRFTISRDNAKNTVYLQMNSLKPEDTAVYYCAARLLGITGRTDSGAEGDYWGQGTQVTVSS
- polyreactivity (PSR sort gate): high polyreactivity

Sequence: QVQLVESGGGLVQAGGSLRLSCAASGLMVTYYAMCGYRPAPGKARELVAAINYSGGSTYDADSVKGRFTISRDNAKTTVYLLMNSLKPEDTAVYYCAARRFTQTEGPMGYWGQGTQVTFSS
- polyreactivity (PSR sort gate): low polyreactivity

Sequence: QVQLVESGGGLVQAGGSHRLSCASYGSIFRCYAKGWYRQAPGKERELVAGITRSGGSTYYADSVKGRFTISRDNAKNTVYLQLNRLKPEDTAVYYCNADLYRKRAWVRRDGSWGHGTQVTVSS
- polyreactivity (PSR sort gate): low polyreactivity

Sequence: QVQLVESGGGLVQAGGSLRLSCAASGIIFYLYVMGWYRQAPGKERELVAVISYSGDDTYYADSVKVRFTISRDNAKNTVYLQMNSLKPEDTAVYYCAADSIGYGFDYWGQGTQVTVSS
- polyreactivity (PSR sort gate): low polyreactivity

Sequence: QVQLVESGGGLVQAGGSLRLSCAASGSIFARYTMGGYRPAPGKASELVAAISTSGSRTYYADSVKGRFTISRDNAKKTVYLQRYSLKPEDTAVYFCAARNGGRYAPGLDYWGQGTQVTVSS
- polyreactivity (PSR sort gate): high polyreactivity

Sequence: QVQLVESGGGLVKAGGSLRLSCAASGSTFLWTTMGWYRPAPGKERELVAAISRSGGSTYYADSVKGRFTISRDNAKNTVYLQMISLKPEDTAVYYCAARTAGPWSWYHYWGQGTQVTVSS
- polyreactivity (PSR sort gate): high polyreactivity

Sequence: QVQLVESGGGLVQAGGSLRFSCAASGFTFSVYAMGWYRQAPGTEMELVAAIHWSGGSTYYADSVKGRFTISRDNAKNTVYLQMNSLKPEDTAVYYCNTLYWYTRHVVDYWGQGTQVTVSS
- polyreactivity (PSR sort gate): high polyreactivity

Sequence: QVQLVESGGGLVQAGGSLRLSCAASGIIFDFYAMGWYRQAPGKEWELVAAITVSGGSTYYADSVKGRFTISRDNAKNTVYLQMNSLKPEDTAVYYCAAVGDWYVSYYEMDYWGQGTQVTVSS
- polyreactivity (PSR sort gate): low polyreactivity

Sequence: QVKLVESAVGLVQAGGSLRLSCAASGRTFCSYAMGWYRQAPGKERELVAAISRGGSRTYYADSVKGRFTISRDNAKNTVYLQMNSLKPEDTAVYYCAADPTASGHFLGQVDYWGQGTQVTVSS
- polyreactivity (PSR sort gate): high polyreactivity

Sequence: QVQLVESGGGLVQAGGSLRLSCAASGLIFGPYAVGWYRQAPGKERELVAGISRGGSTYYADSVKGRFTISRDNAKKTVYLQMNSLKPEDTAVYYCAASRRYRGVNRPGDYWGQGTQVTVSS
- polyreactivity (PSR sort gate): high polyreactivity

Sequence: QVLLVESGGGLVQAGGSLRLSCAASGRILYHYAMGWYRQAPGKERELVAAITRGGGTNYADSVKGRFTISRDNAKNTVYLQMNSLKPEDTAVYYCNADRFIVTRSRRGDYWGQGTQVTVSS
- polyreactivity (PSR sort gate): low polyreactivity

Sequence: QVQLVESRGGLVQAGGSLRLSCAASGRTFYSYAMGWSRQAPGKERELVAAITSSGGSTYYADSVKGRFTISRDNAKNTVYLQMNSLKPEDTAVYYCAAGKPYSSYWSWGYWTNLEDDYWGQGTQVTVSS
- polyreactivity (PSR sort gate): high polyreactivity

Sequence: QVQLVESGGGIVQAGGSLRLSCAASGRTFPGYAMGWSRQAPGKERELVATITFSDGSTYYADSVKGRFTISRDNAKNTVYLQMNSLKPEDTAVYYCNARRSYFLRYGVNYWGQGTQVTVSS
- polyreactivity (PSR sort gate): low polyreactivity

Sequence: QVQLVESGGGIVQAGGSLRLSCAASGSIYGYAMGWYRQAPGKERELVAAISGRGGRTYYADSVKGRFTISRDNAKNTVYLQMNSLKPEDTAVYYCNVQWRYPYHYTVDYWGQGTQVTVSS
- polyreactivity (PSR sort gate): high polyreactivity

Sequence: QVQLVESGGGLVQAGGRLRLSCAASGRIFATNAMGWYRQAPGKERELVATITRSAGRTYYADSVKGRFTISRDNAKNTVYLQMNSLKPEDTAVYYCAADGYSTAVDDTVRYIVEYEFWGQGTQVTVSS
- polyreactivity (PSR sort gate): low polyreactivity

Sequence: QVQLVESGGGLVQAGGSLRLSCAASGSSFPRYAMAWYTPAPGKERELVAAISSGGSTYYADSVKGRFTISRDNAKNTVYLQMNSLKPEDTAVYYCTARRSRSRYDYWGQVTQVTVSS
- polyreactivity (PSR sort gate): high polyreactivity

Sequence: QVQLVESGGGLVQAGGSLRLSCAASGRTFWRNAMGWYRQAPGKERELVAAISSSGDRTYYADSVKGRFTISRDNANNTVYLQMNSLKPEDTAVYYCAADVRYSSRFYYWGQGTQVTVSS
- polyreactivity (PSR sort gate): high polyreactivity

Sequence: QVQLVESGGGLVQAGGSLRLSCDASGFIFRRYTMGWNRQAPGKETELVPAITSSGGTNYADSVKGRFTISRDNAKNNVFVLRNSLKPEDTAVYYCAARRLTQQGYGGGYWGQGTQVTVAS
- polyreactivity (PSR sort gate): high polyreactivity

Sequence: QVQLVESGGGLVQAGGSLRLSCAASGSISAVNAMGWYRQAPGKERELVAAITYSGGSTYYADSVKGRFTISRDHAQNTVYLQINSLKPEDTAVYNCAARARYPNWTYYYWGQGTQVTVSS
- polyreactivity (PSR sort gate): high polyreactivity

Sequence: QVQLVESGGRLVQAGGSLRLSCAASGYIFKTNVMGWYRQAPGKEREMVAAISWSGGRTYYADSVKGRFTISRDYGKNCVYLQMNSLKPEDTSVYYFAAVGRQSIYFVDYDFWGQGTQVTVSS
- polyreactivity (PSR sort gate): high polyreactivity

Sequence: QVQLVESGGGLVQAGGSLRLSCAASGSIFGYYAMGWYRQAPGKEREFVAAISWSGGRTTYADSVKGRFTISRDNAKNTVYLQMNSLKPEDTAVYYCAAAARRKFYYWGQGTQVTVSS
- polyreactivity (PSR sort gate): high polyreactivity

Sequence: QVQLVESGGGLVQAGGSLRLSCAASGSIFGYNAMGWYRQAPGKERELVAAISYSGGSTYYADSVKWRFTISRDNAKNTVYLQMNSLKPEDTAVYYCNKYIRRYLIYGSWGQGTQVTVSS
- polyreactivity (PSR sort gate): high polyreactivity

Sequence: QVQLVESGGGLVQAGGSLRLICAASGSIFYVNAMGWYRQEPGKERELVAGISRSGSSTYYADSVKGRFTISRDNAKNTVYLLMNSLKPEDTAVYYCNRVYQGRGWHDYWGQGTQVTVSS
- polyreactivity (PSR sort gate): high polyreactivity

Sequence: QVQLVESGGGLVQAGGSLRLSCAASGRIFSLNVMGWYRPAPGKERELVATIRGRGTSTYYADSVKGRFTISRDNAKNTVYLQMNSLKPEDTAVYYCAARGHGAYGYWGQGTQVTVSS
- polyreactivity (PSR sort gate): low polyreactivity

Sequence: QVQLVESGGGLVQAGGSLRLSCAASGIIFWYYAMGWYRQAPGKERELVAAISSGGGTNYADSVKGRFTISRDNAKNTVYLQMNSLKPEDTAVYYCNADDNPVWEYDYWGQGTQVTVSS
- polyreactivity (PSR sort gate): low polyreactivity

Sequence: QVQLVESGGGLVQAGGSLRLSCAASGRIFRYYAMGWYRQAPGKERELVAAITSDGRTYYADSVKGRFTISRDNAKNTVYLQMNSLKPEDTAVYYCAADHHSYRYGGYYYWGQGTQVTVSS
- polyreactivity (PSR sort gate): low polyreactivity

Sequence: QVQLQESSGGLVQAGGSLRMSCAASGTIFHIHIMGRYRQAPGKEGEFVAAISYGTSTYYADSVKGRFTISRDNAKNTVYLQMNSQKPEDTAVYYCAVYDYLEVYFWYWGQGTQVTVSS
- polyreactivity (PSR sort gate): low polyreactivity

Sequence: QVQLVESGGGLVQAGGSLRLSCAASGLIFRWYAMGWYRTAPGKERELVAAISRRGGTTNYADSVKGRFTISRDNAKNTVYLQMNSLKPDDTAVYYCAADYQSVGGAEYDYWGQGTQVTVSS
- polyreactivity (PSR sort gate): high polyreactivity

Sequence: QVQLVESGGGLVQAGGSLRLSCAATGRIFWVYAMGWYRQAPGKERELVAAINTSVGRTHYADSVKGRFTISRDNAKNTVYLQMNSLKPEDTAVYYCAADVKRYGWEYGYWGQGTQVTVSS
- polyreactivity (PSR sort gate): low polyreactivity

Sequence: QVQLVESGGGLVQAGGSLRLSCAASGRTLARNAKGWYRQAPGKERELVASINGRTTRTYYADSVKGRFTISRDNAKNTVYLQMNSLKPEDTAVYYCAADPPGYVYGKRYYWGQGTQVTVSS
- polyreactivity (PSR sort gate): high polyreactivity

Sequence: QVQLVESGGGLVQAGGSLRLSCAASGSIFTVYTMGWYRQAPGKERELVAAINSRGGTTYYADSVKGRFTISRDNAKNTVYLQMNSLKPEDTAVYYCAAKQRPKSYGPGHYYWGQGTQVTVSS
- polyreactivity (PSR sort gate): high polyreactivity

Sequence: QVQLVESGGGLVQAGGSLRLSCASSGSTYYVYGMVWYRQAPGKERELVAAISWSGGDTYYADSVKGRFTISRDNAKKTVYFQMNPLKPEDTGVYYCAAVYNYPVVCEYDYWGQGTQVTVSS
- polyreactivity (PSR sort gate): high polyreactivity

Sequence: QVQLVESGGGLVQAGGSLRLSCAASGSTFYRYAMGWYRQAPGKERELVARIDWSDGSTNYADSVKGRFTISRDNAKNTVYLQMNSLKPEDTAVYYCAADTYSDTYDGEYEYWGQGTQVTVSS
- polyreactivity (PSR sort gate): low polyreactivity

Sequence: QVQLVESGGGLVQAGGSLRLSCAASGRIFSFYAMGWYRQAPGKERELVATISKRAGSTYYADSVKGRFTISRDNAKNTVYLQMNSLKPEDTAVYYCAARKWYYASSRWRDYWGQGTQVTVSS
- polyreactivity (PSR sort gate): high polyreactivity

Sequence: QVQLVESGGGLVQAGGSLRLSCAASGFIFADYTMGWYRQPPGKERELVAAITRSGDSTYYADSVKGRFTISRDNAKNTVYLQMNSLKPEDTAVYYCNAVNDWYYAYYGVTSFRSYDYWGQGTQVTVSS
- polyreactivity (PSR sort gate): low polyreactivity
